Measurements: article PMC6995776 (Journal of molecular biology, 2019)

What was measured:
Assay in all cases: ITC
[1] = biological target: TbPRMT1 ENZ-Δ21PRO complex (Trypanosoma brucei, UniProt Q4GYA9 1-345)
[2] = biological target: TbPRMT1 ENZ-Δ45PRO complex (Trypanosoma brucei, UniProt Q4GYA9 1-345)
[3] = biological target: T1, TbPRMT1 ENZ-PRO complex (wild type) (Trypanosoma brucei, UniProt Q4GYA9 1-345)
[4] = biological target: TbPRMT1 ENZ-Δ31PRO complex (Trypanosoma brucei, UniProt Q4GYA9 1-345)
[5] = biological target: T1, TbPRMT1 ENZ-PRO complex (wild type); remark: listed apart in the source

B1: Maltose Binding Protein (MBP)-fused TbRGG1 (natural protein)
chain: MVCSTICLFQRGQWGNEGSRGDQRNYDNRGGRGEWGDRGGQRGDNQRDYGDQRNYDNRGGRGEWGDRGGQRGDNQRDYGDQRNYDNRGGRGEWGDRGGQRGDNQRDYGDQRNYDNRGGRGEWGDRGGQRGDNQRDYGDQRNYDNRGGRGEWGDRGGQRGDNQRDYGDQRNYDNRGGRGEWGDRGGQRGDNQRNYDNRGGRGEWGDRGGQRGGNQRDNSNQFGYRNERDGGIGRQRSARDNFGAHDNRASDERGSTDPAVGEVFDEQAAKILYELKRRFKSSKTGKERRDVQREARRIVRRARVDPSTQDEKSVTLLLNCAATFRCYPHTEGIKQATEWMRKNIDGLSPQNVALFTNAIGALSVVDSDTILINEISPAVEACYGQMNPVELVMTLQAFQRGRITENEDLQVSLLQQLVTCVPQMPAPQLSTLAGVLVDTPLRKRDEATWQEIAKTVVSKAASGAENMHSREVITLLKATPRLGVPEDHSFHLVDRAIATVGFHTDEQIGELLEAVSYYRDPQKTCGRELNEKLDKLVDALWARLQKVAPFADAASVTTIMRAAHRSGVDVPRDIVSTLVQAVMRELRYHRFTFRRVASLSEALALQKVPAKELLVMLGDYCIGKRPPREERGENTPVDDHNSGIEERMDIYARFLGDLTKARIALENAHSSNAGNGEPGSSVSQILAQRLEDSVGSAPPRELLKSVRAICTAADDCPFRNRANDGKIIALSEQRIAKEGASFMEGVRKTTMENFLSAVSGIPQAQKVVEVLSHQTR
[1]
  Kd: 36 µM
[2]
  Kd: 160 µM
[3]
  Kd: 9 µM
[4]
  Kd: 86 µM
[5]
  stoichiometry N: 1
